Here are results for one molecule from paper PMC4118853, “Phage Orf Family Recombinases: Conservation of Activities and Involvement of the Central Channel in DNA Binding” (PLoS ONE, 2014).

Settings in all cases: protein: recombinant; tags: N-terminal MBP; chain copies: 2; label: 5'-32P; single strand
Series [1] has as its target T1, MBP-YbcN (Escherichia coli cryptic prophage DLP12 …, UniProt Q47269 1-151).
T1 sequence: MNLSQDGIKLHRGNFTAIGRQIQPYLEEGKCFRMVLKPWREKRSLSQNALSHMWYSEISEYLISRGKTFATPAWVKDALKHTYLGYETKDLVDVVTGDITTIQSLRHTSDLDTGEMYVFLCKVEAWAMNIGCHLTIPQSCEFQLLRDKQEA
Briefly: EMSA; 5 mM EDTA; lower affinity than MBP-Orf; EMSA: 50 mM Tris-HCl pH 8.0, 5 mM EDTA (or 1 mM MgCl2), 1 mM DTT, 5% glycerol, 100 ug/ml BSA, on ice 15 min, 4% PAGE; anisotropy: 100 mM Tris-HCl pH 7.0, 10 nM. (Mobility shift assays separate free from complexed probe on a gel.)

In series [2] the target is T2, MBP-Orf R103E (Bacteriophage lambda, UniProt P03765 1-146, R103E).
T2 sequence: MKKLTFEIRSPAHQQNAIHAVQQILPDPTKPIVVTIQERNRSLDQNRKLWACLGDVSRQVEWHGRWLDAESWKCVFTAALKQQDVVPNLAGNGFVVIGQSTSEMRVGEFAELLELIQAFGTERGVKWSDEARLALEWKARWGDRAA
Briefly: EMSA; 5 mM EDTA; up to 500 nM; EMSA: 50 mM Tris-HCl pH 8.0, 5 mM EDTA (or 1 mM MgCl2), 1 mM DTT, 5% glycerol, 100 ug/ml BSA, on ice 15 min, 4% PAGE; anisotropy: 100 mM Tris-HCl pH 7.0, 10 nM.

For series [3], the target named is T3, MBP-Orf (Bacteriophage lambda, UniProt P03765 1-146).
T3 sequence: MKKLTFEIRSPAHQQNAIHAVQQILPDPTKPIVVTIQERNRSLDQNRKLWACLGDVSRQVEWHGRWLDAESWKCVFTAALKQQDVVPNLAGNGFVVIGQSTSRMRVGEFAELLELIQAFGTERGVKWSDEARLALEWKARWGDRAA
Briefly: EMSA; 5 mM EDTA; EMSA: 50 mM Tris-HCl pH 8.0, 5 mM EDTA (or 1 mM MgCl2), 1 mM DTT, 5% glycerol, 100 ug/ml BSA, on ice 15 min, 4% PAGE; anisotropy: 100 mM Tris-HCl pH 7.0, 10 nM.

B1: SS50 (ssDNA)
DNA: GGCGACGTGATCACCAGATGATTGCTAGGCATGCTTTCCGCAAGAGAAGC
As for B1, the binding result in series [1] is “binds”; in series [2], “no binding”; in series [3] it was “binds”.
